Laboratory results: publication PMC9735655, “Two Distinct Modes of DNA Binding by an MCM Helicase Enable DNA Translocation”

Legend:
[1] = molecular target: MCM protein of Saccharolobus solfataricus with the C-terminal helix-turn-helix domain removed and a modified linker between the N-terminal domain and the AAA+ ATPase domain (Saccharolobus solfataricus) (UniProt Q9UXG1); assay: cryo-EM structure; SsoMCM at 1 mg/mL mixed 5:1 by volume with 1 mM oligonucleotide (T12, T16 or T20-CTATAG-T20), 5 mM ADP-BeF3, magnesium; plunge-frozen; two structural classes, also refined from merged particles
[2] = molecular target: T1, SsoMCM (C-terminal HTH removed, modified interdomain linker; pEE078.1) (Saccharolobus solfataricus, UniProt Q9UXG1 1-265+=GGSGGS+275-612, internal_change); assay: cryo-EM; Mg2+, ADP-BeF3; class 1 (six subunits on DNA, 2.48 A); Cryo-EM sample: protein 1 mg/mL mixed 5:1 (v/v) with 1 mM oligonucleotide, 5 mM fresh ADP-BeF3, magnesium present; buffer, salt, pH and temperature not stated in the material; conditions: protein: recombinant; tags: His6-SUMO removed with Ulp1; chain copies: 6; single strand
T1 sequence: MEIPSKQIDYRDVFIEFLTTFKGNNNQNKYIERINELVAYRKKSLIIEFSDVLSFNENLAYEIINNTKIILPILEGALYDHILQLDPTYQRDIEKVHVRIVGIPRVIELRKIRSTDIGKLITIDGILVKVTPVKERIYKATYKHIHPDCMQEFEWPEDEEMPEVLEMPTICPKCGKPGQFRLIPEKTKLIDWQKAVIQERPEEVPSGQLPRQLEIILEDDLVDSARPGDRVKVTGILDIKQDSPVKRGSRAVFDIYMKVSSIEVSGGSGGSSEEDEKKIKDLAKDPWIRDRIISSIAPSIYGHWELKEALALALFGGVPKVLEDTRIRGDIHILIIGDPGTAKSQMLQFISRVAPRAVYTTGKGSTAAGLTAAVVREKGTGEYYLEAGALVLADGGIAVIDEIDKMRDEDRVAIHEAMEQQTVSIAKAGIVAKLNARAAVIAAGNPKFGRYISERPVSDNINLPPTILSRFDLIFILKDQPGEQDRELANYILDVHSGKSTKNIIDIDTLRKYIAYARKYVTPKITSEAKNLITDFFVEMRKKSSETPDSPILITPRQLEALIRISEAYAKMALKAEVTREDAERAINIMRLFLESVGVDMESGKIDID

[3] = molecular target: T1, SsoMCM (C-terminal HTH removed, …); assay: cryo-EM; Mg2+, ADP-BeF3; class 1 (six subunits on DNA); Cryo-EM sample: protein 1 mg/mL mixed 5:1 (v/v) with 1 mM oligonucleotide, 5 mM fresh ADP-BeF3, magnesium present; buffer, salt, pH and temperature not stated in the material; conditions: protein: recombinant, tags: His6-SUMO removed with Ulp1, chain copies: 6

Molecule: MCM protein of Saccharolobus solfataricus with the C-terminal helix-turn-helix domain removed and a modified linker between the N-terminal domain and the AAA+ ATPase domain (from UniProt Q9UXG1 1-686) (enzyme)
- stoichiometry N [1]: 6

Molecule: TTTTTTTTTTTTTTTT (ssDNA) [T16 (16-mer poly-dT)]
- binding result [2]: binds

Molecule: TTTTTTTTTTTT (ssDNA) [T12 (12-mer poly-dT)]
- binding result ([3]; single strand): binds

Molecule: TTTTTTTTTTTTTTTTTTTTCTATAGTTTTTTTTTTTTTTTTTTTT (ssDNA) [T20-CTATAG-T20]
- binding result ([3]; central 6-nt palindrome, potential X-shape with 20-mer poly-dT arms): binds
